Assay results: patent US20180016327A1 (Chugai, published 2018)
Where a chain is given by its changes, count along the chain named.

B1: CFP0011 11L 30H (antibody, V domains shown)
VH: QVQLVQSGAEVKKPGSSVKVSCKASGGTFSSYAISWVRQAPGQGLEWMGGIIPIFGTANYAQKFQGRVTITADESTSTAYMELSSLRSEDTAVYYCARDMSEFLGWSNYYSYPMDVWGQGTTVTVSS
VL: DIQMTQSPSSLSASVGDRVTITCRASQSIHDDLAWYQQKPGKAPKLLIYHASSLQSGVPSRFSGSGSGTDFTLTISSLQPEDFATYYCQQSDNSPYTFGQGTKVEIK
B2: CFP0017 17L 32N (antibody, V domains shown)
VH: QVQLVQSGAEVKKPGSSVKVSCKASGGTFSSYAISWVRQAPGQGLEWMGGIIPIFGTANYAQKFQGRVTITADESTSTAYMELSSLRSEDTAVYYCARGGWWGGALDYWGQGTLVTVSS
VL: B1 VL with H30E, D32N, N93S, S94Y, Y96L
B3: CFP0021 (antibody, V domains shown)
VH: QVQLVESGGGLVQPGGSLRLSCAASGFTFSDHYMDWVRQAPGKGLEWVGRTRNKANSYTTEYAASVKGRFTISRDDSKNSLYLQMNSLKTEDTAVYYCARTGMMYWGIFDVWGQGTLVTVSS
VL: B1 VL with H30E, S53T, S91H, N93S, S94Y, Y96L
notes: IgG format
B4: CFP0011 11L 92S (antibody, V domains shown)
VH: B1 VH
VL: B1 VL with H30E, D92S
B5: CFP0011 11L 96L (antibody, V domains shown)
VH: B1 VH
VL: B1 VL with H30E, Y96L
B6: CFP0011 11L 94T (antibody, V domains shown)
VH: B1 VH
VL: B1 VL with H30E, S94T
B7: CFP0021 21L 34N (antibody, V domains shown)
VH: B3 VH
VL: B1 VL with H30E, A34N, S53T, S91H, N93S, S94Y, Y96L
B8: CFP0011 11L 53T (antibody, V domains shown)
VH: B1 VH
VL: B1 VL with H30E, S53T
B9: CFP0021 21L 50E (antibody, V domains shown)
VH: B3 VH
VL: B1 VL with H30E, H50E, S53T, S91H, N93S, S94Y, Y96L
B10: CFP0021 21L 30S (antibody, V domains shown)
VH: B3 VH
VL: B1 VL with H30S, S53T, S91H, N93S, S94Y, Y96L
B11: CFP0021 21L 30H (antibody, V domains shown)
VH: B3 VH
VL: B1 VL with S53T, S91H, N93S, S94Y, Y96L
B12: CFP0011 11L 94Y (antibody, V domains shown)
VH: B1 VH
VL: B1 VL with H30E, S94Y
B13: CFP0021 21L 31H (antibody, V domains shown)
VH: B3 VH
VL: B1 VL with H30E, D31H, S53T, S91H, N93S, S94Y, Y96L
B14: CFP0011 11L 32Q (antibody, V domains shown)
VH: B1 VH
VL: B1 VL with H30E, D32Q
B15: CFP0011 11L 31H (antibody, V domains shown)
VH: B1 VH
VL: B1 VL with H30E, D31H
B16: CFP0011 11L 31N (antibody, V domains shown)
VH: B1 VH
VL: B1 VL with H30E, D31N
B17: CFP0011 11L 96I (antibody, V domains shown)
VH: B1 VH
VL: B1 VL with H30E, Y96I
B18: CFP0011 11L 34N (antibody, V domains shown)
VH: B1 VH
VL: B1 VL with H30E, A34N
B19: CFP0011 11L 93D (antibody, V domains shown)
VH: B1 VH
VL: B1 VL with H30E, N93D
B20: CFP0011 11L 96W (antibody, V domains shown)
VH: B1 VH
VL: B1 VL with H30E, Y96W
B21: CFP0011 11L 50A (antibody, V domains shown)
VH: B1 VH
VL: B1 VL with H30E, H50A
B22: CFP0021 21L 31N (antibody, V domains shown)
VH: B3 VH
VL: B1 VL with H30E, D31N, S53T, S91H, N93S, S94Y, Y96L
B23: CFP0011 11L 91R (antibody, V domains shown)
VH: B1 VH
VL: B1 VL with H30E, S91R
B24: CFP0021 21L 31A (antibody, V domains shown)
VH: B3 VH
VL: B1 VL with H30E, D31A, S53T, S91H, N93S, S94Y, Y96L
B25: CFP0011 11L 91Y (antibody, V domains shown)
VH: B1 VH
VL: B1 VL with H30E, S91Y
B26: CFP0011 11L 96F (antibody, V domains shown)
VH: B1 VH
VL: B1 VL with H30E, Y96F
B27: CFP0011 11L 30S (antibody, V domains shown)
VH: B1 VH
VL: B1 VL with H30S
B28: CFP0021 21L 32N (antibody, V domains shown)
VH: B3 VH
VL: B1 VL with H30E, D32N, S53T, S91H, N93S, S94Y, Y96L
B29: CFP0021 21L 50D (antibody, V domains shown)
VH: B3 VH
VL: B1 VL with H30E, H50D, S53T, S91H, N93S, S94Y, Y96L
B30: CFP0021 21L 32Q (antibody, V domains shown)
VH: B3 VH
VL: B1 VL with H30E, D32Q, S53T, S91H, N93S, S94Y, Y96L
B31: CFP0021 21L 50A (antibody, V domains shown)
VH: B3 VH
VL: B1 VL with H30E, H50A, S53T, S91H, N93S, S94Y, Y96L
B32: CFP0011 11L 93G (antibody, V domains shown)
VH: B1 VH
VL: B1 VL with H30E, N93G
B33: CFP0011 11L 93S (antibody, V domains shown)
VH: B1 VH
VL: B1 VL with H30E, N93S
B34: CFP0011 11L 50D (antibody, V domains shown)
VH: B1 VH
VL: B1 VL with H30E, H50D
B35: CFP0011 11L 96H (antibody, V domains shown)
VH: B1 VH
VL: B1 VL with H30E, Y96H
B36: CFP0011 11L 50E (antibody, V domains shown)
VH: B1 VH
VL: B1 VL with H30E, H50E
B37: CFP0011 11L 93R (antibody, V domains shown)
VH: B1 VH
VL: B1 VL with H30E, N93R
B38: CFP0011 11L 96P (antibody, V domains shown)
VH: B1 VH
VL: B1 VL with H30E, Y96P
B39: CFP0011 11L 53H (antibody, V domains shown)
VH: B1 VH
VL: B1 VL with H30E, S53H
B40: CFP0011 11L 53N (antibody, V domains shown)
VH: B1 VH
VL: B1 VL with H30E, S53N
B41: CFP0021 21L 30D (antibody, V domains shown)
VH: B3 VH
VL: B1 VL with H30D, S53T, S91H, N93S, S94Y, Y96L
B42: CFP0021 21L 30A (antibody, V domains shown)
VH: B3 VH
VL: B1 VL with H30A, S53T, S91H, N93S, S94Y, Y96L
B43: CFP0011 11L 31A (antibody, V domains shown)
VH: B1 VH
VL: B1 VL with H30E, D31A
B44: CFP0011 11L 91H (antibody, V domains shown)
VH: B1 VH
VL: B1 VL with H30E, S91H
B45: CFP0011 11L 32N (antibody, V domains shown)
VH: B1 VH
VL: B1 VL with H30E, D32N

Target: T1, human C5 (human, UniProt P01031 19-673; P01031 678-1676, Beta and alpha chains are disulfide-linked and the protein is glycosylated.)
T1 construct: Either in-house recombinant C5 or plasma derived C5 (CALBIOCHEM) was used; also called recombinant human C5; plasma derived human C5
Assay: Biacore, captured antibody, pH 7.4, 37 C;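 further: biacore binding response of anti-C5 antibody light chain variants captured on chip with human C5 injected, ACES running buffer containing 1.2 mM CaCl₂, parent light chain antibody set to 100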
Protocol: The light chain variants were tested for the binding affinity to C5 at pH 7.4 and at 37 degrees C. using Biacore T200 instrument (GE Healthcare) or Biacore 4000 instrument (GE Healthcare). […] Anti-C5 antibodies were captured on an immobilized molecule, and then human C5 was injected. The running buffer used was pH 7.4 ACES Buffer containing 1.2 mM Ca (20 mM ACES, 150 mM NaCl, 1.2 mM CaCl₂, 0.05% Tween 20). A value, % binding, was determined by normalizing binding response with that of antibody comprising parent light chain as 100.

| Binder | % binding (parent = 100) [%] |
| --- | --- |
| B1 | 13.6 |
| B2 | 27 |
| B3 | 100 |
| B4 | 1.1 |
| B5 | 3.2 |
| B6 | 207 |
| B7 | 14.4 |
| B8 | 98.9 |
| B9 | 44 |
| B10 | 76.7 |
| B11 | 59.7 |
| B12 | -0.7 |
| B13 | 41.3 |
| B14 | 18.4 |
| B15 | 100 |
| B16 | 125 |
| B17 | 0.8 |
| B18 | 29.2 |
| B19 | 5.4 |
| B20 | 5.4 |
| B21 | 95.2 |
| B22 | 52.3 |
| B23 | -2.6 |

| Binder | % binding (parent = 100) [%] |
| --- | --- |
| B24 | 31.2 |
| B25 | 56 |
| B26 | 82.8 |
| B27 | 44.5 |
| B28 | 17.5 |
| B29 | 53 |
| B30 | 80.4 |
| B31 | 33.4 |
| B32 | 3.6 |
| B33 | 4 |
| B34 | 58.2 |
| B35 | 5.1 |
| B36 | 75.6 |
| B37 | 11.7 |
| B38 | -1.6 |
| B39 | 115 |
| B40 | 105 |
| B41 | 87.5 |
| B42 | 76.9 |
| B43 | 112 |
| B44 | 320 |
| B45 | 3.6 |
